Assay results from patent US20240368285A1 (HEFEI TG IMMUNOPHARMA, published 2024).
Read-outs that look alike come from different tables or passages of the source.

Legend:
MICA008α3-Fc [1] = molecular target: T1, MICA008α3-Fc (human); assay: ELISA on coated MICA*008 α3-Fc (1 µg/ml), HRP anti-human Fab secondary, OD450
T1 construct: also called MICA*008-Fc; domain α3 of MICA-008 Fc fusion protein

MICB005α3-Fc = molecular target: T2, MICB005α3-Fc; assay: ELISA on coated MICB*005 α3-Fc (1 µg/ml), HRP anti-human Fab secondary, OD450
T2 construct: also called MICB*005-Fc; domain α3 of MICB-005 Fc fusion protein

[2] = molecular target: T3, MICA on human tumor cells (A-375, A549, HCT-15, MDA-MB-231) (human, UniProt Q29983 24-383); assay: flow cytometry on A-549 cells, Alexa-647 goat anti-human secondary, % binding ratio
T3 construct: whole, on cells
T3 sequence (looked up): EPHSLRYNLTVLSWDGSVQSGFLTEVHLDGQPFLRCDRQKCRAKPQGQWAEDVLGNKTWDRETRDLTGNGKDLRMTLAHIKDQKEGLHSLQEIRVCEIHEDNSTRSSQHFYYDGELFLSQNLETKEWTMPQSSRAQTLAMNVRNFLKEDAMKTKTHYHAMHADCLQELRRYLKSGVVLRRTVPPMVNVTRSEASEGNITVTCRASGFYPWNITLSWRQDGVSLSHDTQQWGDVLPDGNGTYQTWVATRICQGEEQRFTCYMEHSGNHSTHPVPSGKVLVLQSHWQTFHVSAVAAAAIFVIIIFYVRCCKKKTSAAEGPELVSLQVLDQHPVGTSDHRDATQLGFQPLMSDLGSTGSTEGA
Experimental: (2) Tumor cells were diluted to a density of 2×10⁶/mL with PBS and added into a 1.5 ml EP tube in a volume of 100 l/tube. 10 l/tube of goat serum was added into the EP tube; and blocking was conducted at 4° C. for 30 min. […] The tube was incubated at 4° C. for 30 min. 1 mL of PBS was added into the EP tube, and centrifugation was conducted 4° C. at a rate of 3,500 rpm for 5 min. The supernatant was removed. Then, the EP tube was washed once with the PBS, and the supernatant was removed after centrifugation. The cells were resuspended with PBS in a volume of 100 l/tube. An Alexa-647 labeled goat anti-human secondary antibody (purchased from Jackson lab) was added into the tube in a volume of 1 l/tube, and the tube was incubated in the dark at 4° C. for 30 min. The tube was washed twice with PBS, and the supernatant was removed after centrifugation. The cells were resuspended with the PBS in a volume of 200 l/tube, and detection was conducted by a flow cytometer. The results are as shown in FIG. 17A and FIG. 17B, FIG. 18A and FIG. 18B, FIG. 19A and FIG. 19B, and FIG. 20A and FIG. 20B.

MICA008α3-Fc [3] = molecular target: T1, MICA008α3-Fc; assay: ELISA on coated MICA*008 α3-Fc (1 µg/ml), HRP anti-human Fab secondary, OD450; remark: listed apart in the source
Experimental: After the antibodies were added, signal intensity was used for judging the binding characteristics of the antibodies and MICA and MICB.
The fusion proteins (produced in the Applicant's laboratory; an amino acid sequence of MICA002α3-Fc is as set forth in SEQ ID NO: 22; an amino acid sequence of MICA005α3-Fc is as set forth in SEQ ID NO: 24; an amino acid sequence of MICA008α3-Fc is as set forth in SEQ ID NO: 25; an amino acid sequence of MICA004α3-Fc is as set forth in SEQ ID NO: 23; an amino acid sequence of MICB001α3-Fc is as set forth in SEQ ID NO: 26; and an amino acid sequence of MICB005α3-Fc is as set forth in SEQ ID NO: 27) were diluted to a concentration of 1 μg/ml with PBS and then added into a 96-well plate in a volume of 100 μl/well. The plate was placed at 4° C. overnight. The PBS in the 96-well plate was removed by sucking. After the plate was washed with PBST (that is, PBS having a pH value of 7.2 included 0.1 volume % of Tween 20) for 6 times, PBS containing 10% of BSA was added in a volume of 200 μl/well. The plate was incubated at 37° C. for 2 hours for blocking. The blocking solution was removed. […]

[4] = molecular target: T4, MICA protein (SPR analyte) (human, UniProt Q29983 24-308, limits assumed); assay: SPR, Biacore 8K
T4 construct: also called major histocompatibility complex class I chain related polypeptide A
T4 sequence: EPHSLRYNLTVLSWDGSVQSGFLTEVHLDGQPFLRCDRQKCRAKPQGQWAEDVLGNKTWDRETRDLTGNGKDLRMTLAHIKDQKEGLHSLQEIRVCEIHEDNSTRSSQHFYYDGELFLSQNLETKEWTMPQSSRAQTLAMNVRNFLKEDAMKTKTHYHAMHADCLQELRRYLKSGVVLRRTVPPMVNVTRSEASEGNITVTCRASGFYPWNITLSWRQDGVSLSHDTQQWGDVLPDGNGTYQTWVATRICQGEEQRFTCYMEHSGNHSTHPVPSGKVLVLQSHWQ
Experimental: In a Biacore 8K (Cytiva) system, the antibody was diluted to a concentration of 10 µg/mL with running buffer (HBS-EP), and the antibody was conjugated onto a protein A (Cytiva, 29127556) chip at a flow rate of […].
Kinetic and affinity data of binding of the maternal antibody h5A1 and the affinity maturation antibody h5A1002 and MICA were detected.

T1 sequence (chain, as listed by the source limits assumed): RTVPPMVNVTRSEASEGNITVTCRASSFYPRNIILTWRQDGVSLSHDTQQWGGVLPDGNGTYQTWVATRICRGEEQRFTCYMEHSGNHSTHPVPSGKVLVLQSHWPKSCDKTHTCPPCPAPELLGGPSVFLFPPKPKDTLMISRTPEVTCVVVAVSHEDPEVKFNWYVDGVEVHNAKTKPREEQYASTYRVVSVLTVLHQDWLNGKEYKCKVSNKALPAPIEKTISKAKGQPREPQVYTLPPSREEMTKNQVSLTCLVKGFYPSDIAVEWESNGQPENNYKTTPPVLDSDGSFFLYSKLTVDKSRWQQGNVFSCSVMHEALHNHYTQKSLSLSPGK
T2 sequence (chain, as listed by the source limits assumed): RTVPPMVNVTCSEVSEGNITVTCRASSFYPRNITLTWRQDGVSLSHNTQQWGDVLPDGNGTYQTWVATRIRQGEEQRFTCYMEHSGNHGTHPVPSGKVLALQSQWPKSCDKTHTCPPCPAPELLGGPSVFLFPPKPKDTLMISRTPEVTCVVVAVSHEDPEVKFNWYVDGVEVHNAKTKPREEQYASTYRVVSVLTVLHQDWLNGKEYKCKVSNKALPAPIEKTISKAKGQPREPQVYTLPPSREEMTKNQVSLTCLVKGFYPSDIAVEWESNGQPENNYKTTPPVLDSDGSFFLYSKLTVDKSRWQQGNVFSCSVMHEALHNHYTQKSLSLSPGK

B1: affinity maturation antibody h5A1002 (antibody, V domains shown)
VH: QVQLQESGPGLVKPSETLSLTCTVSGFSLTTYGGHWIRQPPGKGLEWIGMIWTDGWTDYNAAFISRVTISVDTSKNQFSLKLSSVTAADTAVYYCARKGHGYYYAMDYWGQGTLVTVSS
VL: EIVLTQSPGTLSLSPGERATLSCTASSSVSSSYLHWYQQKPGQAPRLLIYSTSNLISGIPDRFSGSGSGTDFTLTISRLEPEDFAVYYCHQYHRSPFTFGQGTKLEIKR
notes: Human IgG1, kappa; also called h5A1002-hIgG1
MICA008α3-Fc [1]
  EC50 (read off the curve): ~0.06 µg/mL
MICB005α3-Fc
  EC50 (read off the curve): ~0.04 µg/mL
[2]
  EC50 (read off the curve): ~0.4 µg/mL
MICA008α3-Fc [3]
  EC50 (read off the curve): ~0.08 µg/mL
[4]
  fold increase of affinity against maternal antibody h5A1: ~39 times
